Assay [1] relates to RAJI cells. Nature of the assay: JNG assay, co-culture with RAJI cells. The settings on record: JNG cells expressing construct, co-culture with Raji. The format is cell-based. The essentials: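 Jurkat NFAT-GFP (JNG) cells stably transduced with SARs by lentivirus, with drug selection where the construct carried a resistance gene, then co-cultured with target cells at E:T ~1:2 for ~4–18 h. % GFP-positive cells measured by FACS against parental JNG; +/- to 5+ correspond to ~5–50% GFP-positive.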

For assay [2], the system named is RAJI-CD19-KO cells. Nature of the assay: JNG assay, co-culture with RAJI-CD19-KO cells. The class given is cell-based. The following applies: co-culture with Raji-CD19-KO. As to the method:
Cellular supernatant is collected and assayed for the induction of cytokines (e.g., IL2).
JNG (Jurkat cells expressing EGFP under an NFAT promoter) were infected with lentiviral vectors encoding different single chain and multi-chain SARs by spinfection in the presence of 8 µg/ml of Polybrene® (Sigma, Catalog no. H9268). The Jurkat-NFAT-GFP cells are engineered in such a way that the IL-2 promoter, which carries NFAT binding sites, is cloned upstream of the GFP gene. These cells have been used to study signaling via TCR and CAR. The different SARs were stably expressed in Jurkat NFAT-GFP cells by lentiviral mediated gene transfer, followed by selection with puromycin or blasticidin. No drug selection was used in case the construct lacked an antibiotic resistance gene. The SAR-expressing Jurkat-NFAT-GFP cells were cocultured with the target cells at E:T ratio of approximately 1:2 for approximately 4 hours to 18 hours. When the interaction between SIRs and their target antigen results in activation of the NFAT pathway, GFP expression is induced. […] GFP expression was monitored by FACS analysis. The Jurkat-NFAT-GFP (parental) cells were used as control. The structure of different constructs can be determined based on their names. […] The sequence of the other constructs in the table can be similarly determined from their names and by referring to the different Tables of this disclosure that provide the names and SEQ ID NO of the different modules. Alternatively, the composition and modular architecture of the different SAR constructs can be determined from their sequences by bioinformatics tools, including using nucleic acid and amino acids homology searches. A SAR is considered positive in the assay in case the SAR expressing Jurkat-NFAT-GFP cells show greater % GFP positive cells when cultured with the target cell line as compared to parental Jurkat-NFAT-GFP cells. […] In general, the number +/-, +, 2+, 3+, 4+, 5+ refer to approximately 5%, 10%, 20%, 30%, 40% and 50% GFP positive cells. The % of GFP induction in the above assay is dependent not only the relative strength of the SAR but also, among other factors, on the relative level of expression of the SAR in the JNG cells and the relative level of expression of the target antigen in the target cell line. To control for the difference in gene transduction efficiency of the different SAR constructs, the experiment was conducted with JNG cells transduced with SAR constructs co-expressing a drug resistance gene (e.g., puromycin or PAC) followed by drug selection to generate a stable population of SAR-expressing cells. It is to be noted that the drug resistance gene (e.g., PAC) in the SAR constructs is optional and in vivo studies were conducted with SAR constructs lacking the PAC gene.

B1: 22168 (protein)
chain: MALPVTALLLPLALLLHAARPEVQLVESGGGLVQPGGSLRLSCEASGFASDDYIIGWFRQAPGKEREGVSCISSKYANTVYTDSVKGRFRLSRGTAKNTVYLQMSALKPEDTAVYYCAMDSRRVTCPEISTMHRNFDSWGQGTLVTVSSGTGGGGSGGGGSGGGGSEFDIQMTQSPSSLSASVGDRVTITCKASDHINNWLAWYQQKPGQAPKLLIYGATTLETGVPSRFSGSGSGTDYTLTISSLQPEDFATYYCQQSWNTPWTFGQGTKLEIKRLEIQNPDPAVYQLRDSKSSDKSVCLFTDFDSQTNVSQSKDSDVYITDKCVLDMRSMDFKSNSAVAWSNKSDFACANAFNNSIIPEDTFFPSSDVPCDVKLVEKSFETDTNLNFQNLSVIGFRILLLKVAGFNLLMTLRLWSSRAKRSGSGVKQTLNFDLLKLAGDVESNPGPTSATMDWIWRILFLVGAATGAHSGPQVQLQESGGGLAQAGGSLRLSCAASGRTFSMGWFRQAPGKEREFVAAITYSGGSPYYASSVRGRFTISRDNAKNTVYLQMNSLKPEDTAVYYCAANPTYGSDWNAENWGQGTQVTVSSGSGGGGSGGGGSGGGGSFEQVQLQQPGAELVKPGASVKMSCKASGYAFSSYWINWMKQKPGQGLEWIGQIYPGDGDTNYNGKFKGRATLTADTSSSTAYMQLSSLTSEDSAVYFCARSITTVVGCAMDYWGQGTSVTVSSTREDLKNVFPPEVAVFEPSKAEIAHTQKATLVCLATGFYPDHVELSWWVNGKEVHSGVCTDPQPLKEQPALNDSRYCLSSRLRVSATFWQNPRNHFRCQVQFYGLSENDEWTQDRAKPVTQIVSAEAWGRADCGITSASYHQGVLSATILYEILLGKATLYAVLVSALVLMAMVKRKDSRGRAKRSGSGATNFSLLKQAGDVEENPGPSRGHMTEYKPTVRLATRDDVPRAVRTLAAAFADYPATRHTVDPDRHIERVTELQELFLTRVGLDIGKVWVADDGAAVAVWTTPESVEAGAVFAEIGPRMAELSGSRLAAQQQMEGLLAPHRPKEPAWFLATVGVSPDHQGKGLGSAVVLPGVEAAERAGVPAFLETSAPRNLPFYERLGFTVTADVEVPEGPRTWCMTRKPGA
As for B1, the “NFAT-GFP ASSAY: Raji” value in assay [1] is 3+ (refer to approximately 5%, 10%, 20%, 30%, 40% and 50% GFP positive cells). Further, the “NFAT-GFP ASSAY: Raji-CD19-KO” value in assay [2] is 2+ (refer to approximately 5%, 10%, 20%, 30%, 40% and 50% GFP positive cells).

B2: 22167 (protein)
chain: MALPVTALLLPLALLLHAARPEVQLQESGGGLVQPGGSLRLSCAASGRTFSSLFMGWVRQAPGKGLELVSAISRYSLYTYYADSVKGRFTISRDNAKNTLYLQMNSLRPEDTAVYYCASKLEYTSNDYDSWGQGTLVTVSSGTGGGGSGGGGSGGGGSEFDIQMTQSPSSLSASVGDRVTITCKASDHINNWLAWYQQKPGQAPKLLIYGATTLETGVPSRFSGSGSGTDYTLTISSLQPEDFATYYCQQSWNTPWTFGQGTKLEIKRLEIQNPDPAVYQLRDSKSSDKSVCLFTDFDSQTNVSQSKDSDVYITDKCVLDMRSMDFKSNSAVAWSNKSDFACANAFNNSIIPEDTFFPSSDVPCDVKLVEKSFETDTNLNFQNLSVIGFRILLLKVAGFNLLMTLRLWSSRAKRSGSGVKQTLNFDLLKLAGDVESNPGPTSATMDWIWRILFLVGAATGAHSGPQVQLQESGGGLAQAGGSLRLSCAASGRTFSMGWFRQAPGKEREFVAAITYSGGSPYYASSVRGRFTISRDNAKNTVYLQMNSLKPEDTAVYYCAANPTYGSDWNAENWGQGTQVTVSSGSGGGGSGGGGSGGGGSFEQVQLQQPGAELVKPGASVKMSCKASGYAFSSYWINWMKQKPGQGLEWIGQIYPGDGDTNYNGKFKGRATLTADTSSSTAYMQLSSLTSEDSAVYFCARSITTVVGCAMDYWGQGTSVTVSSTREDLKNVFPPEVAVFEPSKAEIAHTQKATLVCLATGFYPDHVELSWWVNGKEVHSGVCTDPQPLKEQPALNDSRYCLSSRLRVSATFWQNPRNHFRCQVQFYGLSENDEWTQDRAKPVTQIVSAEAWGRADCGITSASYHQGVLSATILYEILLGKATLYAVLVSALVLMAMVKRKDSRGRAKRSGSGATNFSLLKQAGDVEENPGPSRGHMTEYKPTVRLATRDDVPRAVRTLAAAFADYPATRHTVDPDRHIERVTELQELFLTRVGLDIGKVWVADDGAAVAVWTTPESVEAGAVFAEIGPRMAELSGSRLAAQQQMEGLLAPHRPKEPAWFLATVGVSPDHQGKGLGSAVVLPGVEAAERAGVPAFLETSAPRNLPFYERLGFTVTADVEVPEGPRTWCMTRKPGA
As to B2, the “NFAT-GFP ASSAY: Raji” value in assay [1] is “+ (refer to approximately 5%, 10%, 20%, 30%, 40% and 50% GFP positive cells)”. The “NFAT-GFP ASSAY: Raji-CD19-KO” value in assay [2] is “+ (refer to approximately 5%, 10%, 20%, 30%, 40% and 50% GFP positive cells)”.

B3: 22121 (protein)
chain: MALPVTALLLPLALLLHAARPDIQMTQSPSSLSASVGDRVTITCKASDHINNWLAWYQQKPGQAPKLLIYGATTLETGVPSRFSGSGSGTDYTLTISSLQPEDFATYYCQQSWNTPWTFGQGTKLEIKRLEGQPKANPTVTLFPPSSEELQANKATLVCLISDFYPGAVTVAWKADGSPVKAGVETTKPSKQSNNKYAASSYLSLTPEQWKSHRSYSCQVTHEGSTVEKTVAPTECSPIKTDVITMDPKDNCSKDANDTLLLQLTNTSAYYMYLLLLLKSVVYFAIITCCLLRRTAFCCNGEKSRAKRSGSGATNFSLLKQAGDVEENPGPTSATMDWIWRILFLVGAATGAHSGPQVQLQESGGGLAQAGGSLRLSCAASGRTFSMGWFRQAPGKEREFVAAITYSGGSPYYASSVRGRFTISRDNAKNTVYLQMNSLKPEDTAVYYCAANPTYGSDWNAENWGQGTQVTVSSGSGGGGSGGGGSGGGGSFEQVQLQQPGAELVKPGASVKMSCKASGYAFSSYWINWMKQKPGQGLEWIGQIYPGDGDTNYNGKFKGRATLTADTSSSTAYMQLSSLTSEDSAVYFCARSITTVVGCAMDYWGQGTSVTVSSTRASTKGPSVFPLAPSSKSTSGGTAALGCLVKDYFPEPVTVSWNSGALTSGVHTFPAVLQSSGLYSLSSVVTVPSSSLGTQTYICNVNHKPSNTKVDKRVEPKSCEVKTDSTDHVKPKETENTKQPSKSCHKPKAIVHTEKVNMMSLTVLGLRMLFAKTVAVNFLLTAKLFFLRAKRSGSGVKQTLNFDLLKLAGDVESNPGPSRGHMTEYKPTVRLATRDDVPRAVRTLAAAFADYPATRHTVDPDRHIERVTELQELFLTRVGLDIGKVWVADDGAAVAVWTTPESVEAGAVFAEIGPRMAELSGSRLAAQQQMEGLLAPHRPKEPAWFLATVGVSPDHQGKGLGSAVVLPGVEAAERAGVPAFLETSAPRNLPFYERLGFTVTADVEVPEGPRTWCMTRKPGA
Turning to B3, the “NFAT-GFP ASSAY: Raji” value in assay [1] was 5+ (refer to approximately 5%, 10%, 20%, 30%, 40% and 50% GFP positive cells). The “NFAT-GFP ASSAY: Raji-CD19-KO” value in assay [2] was 4+ (refer to approximately 5%, 10%, 20%, 30%, 40% and 50% GFP positive cells).

B4: 22215 (protein)
chain: MALPVTALLLPLALLLHAARPACPYINIYNAEPANPSEKNSPTQYAYGTGAVVRGAEFDIQMTQSPSSLSASVGDRVTITCKASDHINNWLAWYQQKPGQAPKLLIYGATTLETGVPSRFSGSGSGTDYTLTISSLQPEDFATYYCQQSWNTPWTFGQGTKLEIKRLEDLKNVFPPEVAVFEPSKAEIAHTQKATLVCLATGFYPDHVELSWWVNGKEVHSGVCTDPQPLKEQPALNDSRYCLSSRLRVSATFWQNPRNHFRCQVQFYGLSENDEWTQDRAKPVTQIVSAEAWGRADCGITSASYHQGVLSATILYEILLGKATLYAVLVSALVLMAMVKRKDSRGRAKRSGSGATNFSLLKQAGDVEENPGPTSATMDWIWRILFLVGAATGAHSGPQVQLQESGGGLAQAGGSLRLSCAASGRTFSMGWFRQAPGKEREFVAAITYSGGSPYYASSVRGRFTISRDNAKNTVYLQMNSLKPEDTAVYYCAANPTYGSDWNAENWGQGTQVTVSSGSGGGGSGGGGSGGGGSFEQVQLQQPGAELVKPGASVKMSCKASGYAFSSYWINWMKQKPGQGLEWIGQIYPGDGDTNYNGKFKGRATLTADTSSSTAYMQLSSLTSEDSAVYFCARSITTVVGCAMDYWGQGTSVTVSSTRIQNPDPAVYQLRDSKSSDKSVCLFTDFDSQTNVSQSKDSDVYITDKCVLDMRSMDFKSNSAVAWSNKSDFACANAFNNSIIPEDTFFPSSDVPCDVKLVEKSFETDTNLNFQNLSVIGFRILLLKVAGFNLLMTLRLWSSRAKRSGSGVKQTLNFDLLKLAGDVESNPGPSRGHMTEYKPTVRLATRDDVPRAVRTLAAAFADYPATRHTVDPDRHIERVTELQELFLTRVGLDIGKVWVADDGAAVAVWTTPESVEAGAVFAEIGPRMAELSGSRLAAQQQMEGLLAPHRPKEPAWFLATVGVSPDHQGKGLGSAVVLPGVEAAERAGVPAFLETSAPRNLPFYERLGFTVTADVEVPEGPRTWCMTRKPGA
As to B4, the “NFAT-GFP ASSAY: Raji” value in assay [1] was “Raji (3+), Raji-CD19-KO (3+) (refer to approximately 5%, 10%, 20%, 30%, 40% and 50% GFP positive cells)”. Moreover, the “NFAT-GFP ASSAY: Raji-CD19-KO” value in assay [2] is “Raji (3+), Raji-CD19-KO (3+) (refer to approximately 5%, 10%, 20%, 30%, 40% and 50% GFP positive cells)”.

Values taken from patent US20230212319A1, “NOVEL ANTIGEN BINDING DOMAINS AND SYNTHETIC ANTIGEN RECEPTORS INCORPORATING THE SAME” (University of Southern California, priority 2020, published 2023).
